Measurements from US9518268B2, “Drought tolerant transgenic plants and method of making same” (PURDUE RESEARCH FOUNDATION, priority 2013, dated 2016).
Entries after “also recorded” stand apart in the source; their conditions may differ.

B1: PYL13: Arabidopsis thaliana PYR/PYL/RCAR family protein PYL13, SEQ ID NO: 1 (protein, listed as Arabidopsis thaliana)
chain: MESSKQKRCRSSVVETIEAPLPLVWSILRSFDKPQAYQRFVKSCTMRSGGGGGKGGEGKGSVRDVTLVSGFPADFSTERLEELDDESHVMVVSIIGGNHRLVNYKSKTKVVASPEDMAKKTVVVESYVVDVPEGTSEEDTIFFVDNIIRYNLTSLAKLTKKMMK

System: RD29B-LUC expression
Experiment: Reconstituted ABA signaling pathway, transient expression in wild-type (Col-0) protoplasts
Type: cell-based, Arabidopsis
Details: for ABA-dependent induction of RD29B-LUC expression: co-transfected with ABI1, SnRK2.6 and ABF2, without or with 5 μM ABA, 4.5 h; for RD29B-LUC expression: SnRK2.6 and ABF2; for level of inhibition by PYL13 of the other PYL's activity: 2×PYL13 plasmid, ABI1, SnRK2.6, ABF2 co-expressed
Description: To test whether PYL13 can act as an ABA receptor, the ABA signaling pathway in wild-type protoplasts was reconstituted. Turning now to FIG. 1, wild-type (Col-0) protoplasts were used in both panels A and B. After transfection, the protoplasts were incubated for 4.5 hours under light in the absence of ABA (open bars) or in the presence of 5 μM ABA (closed bars). Error bars indicate s.e.m. (n=3). […] ZmUBQ-GUS was used as the internal control. […] Instead, the ABA signaling pathway was reconstituted by co-expression of PYLs, ABI1, SnRK2.6, and ABF2. […] Therefore, the response of other members of the PYL family would not predict the response of PYL13 expression or over-expression in plants.
PYL13 interacts with all clade A PP2Cs tested but binds most strongly to PP2CA. To investigate whether PYL13 inhibits PP2Cs in planta, PYL13 was co-expressed with all clade A PP2Cs in wild-type protoplasts, as shown in FIG. 4. Transfections of all PP2Cs together with SnRK2.6 and ABF2 inhibited RD29B-LUC expression to different degrees, see FIG. 4A, and the degree of inhibition was correlated with the intensity of interaction between PP2Cs and SnRK2.6 (Fujii et al., 2009). […] The ABA signaling pathway was reconstituted by co-expression of PYLs, PP2Cs, SnRK2.6, and ABF2. RD29B-LUC was used as the ABA-responsive reporter. ZmUBQ-GUS was used as the internal control. After transfection, protoplasts were incubated for 4.5 h under light in the absence of ABA (open bars) or in the presence of 5 μM ABA (closed bars). Error bars indicate s.e.m. (n=9).
To investigate the physiological significance of the binding between PYL13 and PYLs in vivo, PYL13 was co-expressed with one of the other PYLs, ABI1, SnRK2.6, and ABF2 in wild-type protoplasts. When the transfected PYL13 plasmid was 2-fold of that of the other PYLs, co-transfections with PYL13 decreased the activity of the ABA-responsive PYLs (FIG. 5E). […] ZmUBQ-GUS was used as the internal control. After transfection, protoplasts were incubated for 4.5 h under light in the absence of ABA (open bars) or in the presence of 5 μM ABA (closed bars). Error bars indicate s.e.m. (n=3).
The ABA signaling pathway was reconstituted by co-expression of PYL13, PYLs, ABI1, SnRK2.6, and ABF2. […] Error bars indicate s.e.m. (n=3). […] Without wishing to be bound by theory, PYL13 inhibition of other PYLs might result from direct interactions between PYL13 and other PYLs or from competition for the binding sites on PP2Cs.
Assays for transient expression in protoplasts were performed as described (Fujii et al., 2009). Leaf strips (0.5 mm) were cut from the middle part of second leaves using a razor blade (VWR SCIENTIFIC) and submerged in 15 mL of enzyme solution containing 20 mM MES, pH 5.7, 1.5% (w/v) cellulase R10 (YAKULT PHARMACEUTICAL INDUSTRY), 0.4% (w/v) macerozyme R10 (YAKULT PHARMACEUTICAL INDUSTRY), 0.4 M mannitol, 20 mM KCl, 10 mM CaCl2, 1 mM 2-mercaptoethanol, and 0.1% BSA. The leaves were vacuum infiltrated for 30 min and then incubated without shaking for 3 h in the dark at room temperature. The enzyme/protoplast solution was diluted with 15 mL of W5 solution (2 mM MES, pH 5.7, 154 mM NaCl, 125 mM CaCl2, and 5 mM KCl) and filtered with a 75-μm nylon mesh. Protoplasts were centrifuged at 100 g for 2 min in a 30-mL round-bottomed tube (SARSTEDT), resuspended in W5 solution, and rested for 30 min at room temperature.
Before transfection, protoplasts were changed into MMg solution (4 mM MES, pH 5.7, 0.4 M mannitol, and 15 mM MgCl2) to a final concentration of 2×10^5 cells per microliter. Protoplasts (100 μl) were gently and thoroughly mixed with the plasmid DNA mixture (less than 10 μl) and 110 μl of PEG solution (40% w/v PEG-4000, 0.2 M mannitol, and 100 mM CaCl2), incubated for 5 min, washed with 440 μl of W5 solution, and resuspended in 50 μl of WI solution (4 mM MES, pH 5.7, 0.5 M mannitol, and 20 mM KCl). After transfection, protoplasts were incubated in WI solution without ABA or with 5 μM ABA under light. […]

| Molecule | ABA-dependent induction of RD29B-LUC expression | RD29B-LUC expression (co-transfection with ABI1, ABI2, HAB1, HAB2, or AHG1) | RD29B-LUC expression (co-transfection with PP2CA, HAI2, or HAI3) | level of inhibition by PYL13 of the other PYL's activity (with PYL1) | level of inhibition by PYL13 of the other PYL's activity (with PYL2) |
| --- | --- | --- | --- | --- | --- |
| PYL2: Arabidopsis thaliana PYL family ABA receptor protein PYL2, AT2G26040 | enabled the expression; also recorded: restored RD29B-LUC expression |  |  |  |  |
| B1 | did not enable the expression | did not enable RD29B-LUC expression | enabled the ABA-dependent induction | 67% | 27% |
